Test results published in publication PMC11402830.

Target: T1, human peptidyl arginine deiminase 6 (human), Q6TGC4
T1 chain: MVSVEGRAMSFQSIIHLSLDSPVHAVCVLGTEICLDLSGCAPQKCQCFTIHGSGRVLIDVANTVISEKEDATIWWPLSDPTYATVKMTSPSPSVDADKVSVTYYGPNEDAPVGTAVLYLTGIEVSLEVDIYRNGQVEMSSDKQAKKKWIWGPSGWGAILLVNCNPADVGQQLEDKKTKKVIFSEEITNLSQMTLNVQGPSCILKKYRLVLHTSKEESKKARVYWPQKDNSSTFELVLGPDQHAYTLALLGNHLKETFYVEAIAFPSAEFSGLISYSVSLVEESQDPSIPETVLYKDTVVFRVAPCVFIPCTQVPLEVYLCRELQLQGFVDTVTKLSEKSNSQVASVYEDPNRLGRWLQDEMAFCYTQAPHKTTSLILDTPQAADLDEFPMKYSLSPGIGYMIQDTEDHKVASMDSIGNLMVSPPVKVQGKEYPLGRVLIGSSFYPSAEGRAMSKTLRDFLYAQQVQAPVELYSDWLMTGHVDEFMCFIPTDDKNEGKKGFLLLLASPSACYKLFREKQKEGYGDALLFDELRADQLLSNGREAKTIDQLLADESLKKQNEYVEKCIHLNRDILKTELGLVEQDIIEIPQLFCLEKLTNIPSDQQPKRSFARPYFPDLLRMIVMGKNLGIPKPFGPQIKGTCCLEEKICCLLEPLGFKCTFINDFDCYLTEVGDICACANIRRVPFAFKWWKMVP
Experiment: mass photometry; hPADI6 at 4 nM (diluted to about 40 nM in 50 mM Tris-HCl pH 7.5, 200 mM NaCl, 1 mM TCEP, then 2 uL into 18 uL PBS), TwoMP instrument; dimer to monomers
Settings: remark: other sources report otherwise

dimer:monomer ratio at 4 nM (dimer:monomer): 8 | stoichiometry N: 2
B1: human peptidyl arginine deiminase 6, Q6TGC4 1-694 (natural protein)
chain: MVSVEGRAMSFQSIIHLSLDSPVHAVCVLGTEICLDLSGCAPQKCQCFTIHGSGRVLIDVANTVISEKEDATIWWPLSDPTYATVKMTSPSPSVDADKVSVTYYGPNEDAPVGTAVLYLTGIEVSLEVDIYRNGQVEMSSDKQAKKKWIWGPSGWGAILLVNCNPADVGQQLEDKKTKKVIFSEEITNLSQMTLNVQGPSCILKKYRLVLHTSKEESKKARVYWPQKDNSSTFELVLGPDQHAYTLALLGNHLKETFYVEAIAFPSAEFSGLISYSVSLVEESQDPSIPETVLYKDTVVFRVAPCVFIPCTQVPLEVYLCRELQLQGFVDTVTKLSEKSNSQVASVYEDPNRLGRWLQDEMAFCYTQAPHKTTSLILDTPQAADLDEFPMKYSLSPGIGYMIQDTEDHKVASMDSIGNLMVSPPVKVQGKEYPLGRVLIGSSFYPSAEGRAMSKTLRDFLYAQQVQAPVELYSDWLMTGHVDEFMCFIPTDDKNEGKKGFLLLLASPSACYKLFREKQKEGYGDALLFDELRADQLLSNGREAKTIDQLLADESLKKQNEYVEKCIHLNRDILKTELGLVEQDIIEIPQLFCLEKLTNIPSDQQPKRSFARPYFPDLLRMIVMGKNLGIPKPFGPQIKGTCCLEEKICCLLEPLGFKCTFINDFDCYLTEVGDICACANIRRVPFAFKWWKMVP
